Data reported in PMC4024244 (Human genetics, 2013).
Changes are numbered by the printed parent chain.

B1: ColQ p.Asp370Asn (natural protein, human, UniProt Q9Y215-1 23-455, looked up)
chain: QPTFINSVLPISAALPSLDQKKRGGHKACCLLTPPPPPLFPPPFFRGGRSPLLSPDMKNLMLELETSQSPCMQGSLGSPGPPGPQGPPGLPGKTGPKGEKGELGRPGRKGRPGPPGVPGMPGPIGWPGPEGPRGEKGDLGMMGLPGSRGPMGSKGYPGSRGEKGSRGEKGDLGPKGEKGFPGFPGMLGQKGEMGPKGEPGIAGHRGPTGRPGKRGKQGQKGDSGVMGPPGKPGPSGQPGRPGPPGPPPAGQLIMGPKGERGFPGPPGRCLCGPTMNVNNPSYGESVYGPSSPRVPVIFVVNNQEELERLNTQNAIAFRRDQRSLYFKDSLGWLPIQLTPFYPVDYTANQHGTCGDGLLQPGEECDDGNSDVGDDCIRCHRAYCGDGHRHEGVEDCDGSDFGYLTCETYLPGSYGDLQCTQYCYIDSTPCRYFT
B2: ColQ p.Tyr404Asp (natural protein, human, UniProt Q9Y215-1 23-455, looked up)
chain: B1 chain with N348D, Y382D
B3: ColQ p.Cys400Tyr (natural protein, human, UniProt Q9Y215-1 23-455, looked up)
chain: B1 chain with N348D, C378Y
B4: ColQ p.Cys397Ser (natural protein, human, UniProt Q9Y215-1 23-455, looked up)
chain: B1 chain with N348D, C375S
B5: ColQ p.Gly423Val (natural protein, human, UniProt Q9Y215-1 23-455, looked up)
chain: B1 chain with N348D, G401V
B6: purified A12 asymmetric form of AChE with ColQ p.Asp370Asn (complex, human)
chain 1: B1 chain
chain 2: EGREDAELLVTVRGGRLRGIRLKTPGGPVSAFLGIPFAEPPMGPRRFLPPEPKQPWSGVVDATTFQSVCYQYVDTLYPGFEGTEMWNPNRELSEDCLYLNVWTPYPRPTSPTPVLVWIYGGGFYSGASSLDVYDGRFLVQAERTVLVSMNYRVGAFGFLALPGSREAPGNVGLLDQRLALQWVQENVAAFGGDPTSVTLFGESAGAASVGMHLLSPPSRGLFHRAVLQSGAPNGPWATVGMGEARRRATQLAHLVGCPPGGTGGNDTELVACLRTRPAQVLVNHEWHVLPQESVFRFSFVPVVDGDFLSDTPEALINAGDFHGLQVLVGVVKDEGSYFLVYGAPGFSKDNESLISRAEFLAGVRVGVPQVSDLAAEAVVLHYTDWLHPEDPARLREALSDVVGDHNVVCPVAQLAGRLAAQGARVYAYVFEHRASTLSWPLWMGVPHGYEIEFIFGIPLDPSRNYTAEEKIFAQRLMRYWANFARTGDPNEPRDPKAPQWPPYTAGAQQYVSLDLRPLEVRRGLRAQACAFWNRFLPKLLSATDTLDEAERQWKAEFHRWSSYMVHWKNQFDHYSKQDRCSDL
B7: purified A12 asymmetric form of AChE with ColQ p.Cys397Ser (complex, human)
chain 1: B1 chain with N348D, C375S
chain 2: B6 chain 2

The binders below were run against T1, muscle-specific receptor tyrosine kinase (MuSK), wild type, expressed in HEK-293 (human, UniProt O15146 24-869) (assay: co-IP).
T1 sequence (looked up): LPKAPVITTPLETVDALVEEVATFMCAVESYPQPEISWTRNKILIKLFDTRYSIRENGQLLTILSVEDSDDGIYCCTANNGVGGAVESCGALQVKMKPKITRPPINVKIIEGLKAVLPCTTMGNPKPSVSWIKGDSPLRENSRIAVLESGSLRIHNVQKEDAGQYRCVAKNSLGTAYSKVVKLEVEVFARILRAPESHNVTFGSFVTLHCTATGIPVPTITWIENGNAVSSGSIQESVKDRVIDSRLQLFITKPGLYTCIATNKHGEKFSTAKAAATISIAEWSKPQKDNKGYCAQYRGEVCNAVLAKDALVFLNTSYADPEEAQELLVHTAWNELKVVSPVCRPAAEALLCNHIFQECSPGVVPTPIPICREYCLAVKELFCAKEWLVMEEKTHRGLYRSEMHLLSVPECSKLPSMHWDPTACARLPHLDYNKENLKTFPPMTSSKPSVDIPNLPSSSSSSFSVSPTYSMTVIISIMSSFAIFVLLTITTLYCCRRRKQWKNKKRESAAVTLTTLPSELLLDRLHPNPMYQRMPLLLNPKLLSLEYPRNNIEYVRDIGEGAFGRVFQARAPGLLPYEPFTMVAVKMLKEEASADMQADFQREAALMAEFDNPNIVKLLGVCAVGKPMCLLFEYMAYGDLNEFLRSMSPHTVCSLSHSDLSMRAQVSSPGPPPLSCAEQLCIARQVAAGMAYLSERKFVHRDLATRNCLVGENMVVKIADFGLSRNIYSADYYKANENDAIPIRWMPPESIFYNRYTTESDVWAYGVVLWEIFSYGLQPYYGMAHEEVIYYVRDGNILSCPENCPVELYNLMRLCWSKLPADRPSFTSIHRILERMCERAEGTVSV

Q: B1 was tested. Which “percent reduction of binding to MuSK against WT ColQ” value (“percent reduction of binding to MuSK” for short) did it give?
A: 1.5%

Q: B2 was tested. Which “percent reduction of binding to MuSK” value did it give?
A: 7.4%

Q: How did the “percent reduction of binding to MuSK” value turn out when B3 was run?
A: 5%

Q: With B4 as the binder, how does the “percent reduction of binding to MuSK” value read?
A: 6.7%

Q: B5 was tested. Which “percent reduction of binding to MuSK” value did it give?
A: 16.8%

Molecular target: T2, MuSK protein (Millipore) (UniProt O15146 24-495)
T2 chain: T1 sequence (looked up)
Experiment: plate overlay binding assay with

Q: B6 was tested. Which other did it give?
A: 15%

Q: How did the other turn out when B7 was run?
A: 18%
